Experiments:
[1] = target: T1, P10; assay: two-hybrid library CC1;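 also: natural log of median RNA to DNA barcode read ratio; higher means stronger binding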
T1 chain: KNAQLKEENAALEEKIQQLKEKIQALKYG

[2] = target: T2, P11; assay: two-hybrid library CC1; conditions: mean of both orientations;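 also: natural log of median RNA to DNA barcode read ratio; higher means stronger binding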
T2 chain: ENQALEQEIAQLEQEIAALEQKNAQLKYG

[3] = target: T3, P12; assay: two-hybrid library CC1; conditions: mean of both orientations;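 also: natural log of median RNA to DNA barcode read ratio; higher means stronger binding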
T3 chain: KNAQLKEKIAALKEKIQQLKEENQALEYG

[4] = target: T4, P3; assay: two-hybrid library CC1; conditions: mean of both orientations;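 also: natural log of median RNA to DNA barcode read ratio; higher means stronger binding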
T4 chain: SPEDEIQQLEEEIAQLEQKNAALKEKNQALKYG

[5] = target: T5, P3mS; assay: two-hybrid library CC1; conditions: mean of both orientations;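 also: natural log of median RNA to DNA barcode read ratio; higher means stronger binding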
T5 chain: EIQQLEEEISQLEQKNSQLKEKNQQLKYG

[6] = target: T6, P4; assay: two-hybrid library CC1; conditions: mean of both orientations;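 also: natural log of median RNA to DNA barcode read ratio; higher means stronger binding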
T6 chain: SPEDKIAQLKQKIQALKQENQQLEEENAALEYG

[7] = target: T7, P4mS; assay: two-hybrid library CC1; conditions: mean of both orientations
T7 chain: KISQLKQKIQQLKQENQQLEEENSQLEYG

[8] = target: T8, P5SC1; assay: two-hybrid library CC1; conditions: mean of both orientations
T8 chain: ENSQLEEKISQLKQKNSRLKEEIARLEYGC

[9] = target: T9, P5SC2; assay: two-hybrid library CC1; conditions: mean of both orientations
T9 chain: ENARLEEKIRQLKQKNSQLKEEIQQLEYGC

[10] = target: T10, P5; assay: two-hybrid library CC1; conditions: mean of both orientations
T10 chain: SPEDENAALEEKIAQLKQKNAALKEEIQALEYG

[11] = target: T11, P5mS; assay: two-hybrid library CC1; conditions: mean of both orientations
T11 chain: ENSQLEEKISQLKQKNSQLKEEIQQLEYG

[12] = target: T12, P6SC1; assay: two-hybrid library CC1; conditions: mean of both orientations
T12 chain: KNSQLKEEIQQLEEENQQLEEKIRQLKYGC

[13] = target: T13, P6SC2; assay: two-hybrid library CC1; conditions: mean of both orientations
T13 chain: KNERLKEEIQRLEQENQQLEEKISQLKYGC

[14] = target: T14, P6; assay: two-hybrid library CC1; conditions: mean of both orientations
T14 chain: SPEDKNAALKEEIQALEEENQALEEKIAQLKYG

[15] = target: T15, P6mS; assay: two-hybrid library CC1; conditions: mean of both orientations
T15 chain: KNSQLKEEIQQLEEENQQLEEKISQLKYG

[16] = target: T16, P7; assay: two-hybrid library CC1; conditions: mean of both orientations
T16 chain: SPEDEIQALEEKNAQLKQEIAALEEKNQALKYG

[17] = target: T17, P7mS; assay: two-hybrid library CC1; conditions: mean of both orientations
T17 chain: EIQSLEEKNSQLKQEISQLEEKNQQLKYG

[18] = target: T18, P8; assay: two-hybrid library CC1; conditions: mean of both orientations
T18 chain: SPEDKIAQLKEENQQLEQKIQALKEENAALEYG

[19] = target: T19, P8mS; assay: two-hybrid library CC1; conditions: mean of both orientations
T19 chain: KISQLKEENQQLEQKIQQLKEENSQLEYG

[20] = target: T20, P9; assay: two-hybrid library CC1; conditions: mean of both orientations
T20 chain: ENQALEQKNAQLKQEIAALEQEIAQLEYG

[21] = target: T21, 4H1081-bA; assay: two-hybrid library CCNG1; conditions: mean of both orientations
T21 chain: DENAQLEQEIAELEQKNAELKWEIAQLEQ

[22] = target: T22, 4H112-bA; assay: two-hybrid library CCNG1
T22 chain: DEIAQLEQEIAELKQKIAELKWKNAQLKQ

[23] = target: T23, 4H1158-bA; assay: two-hybrid library CCNG1
T23 chain: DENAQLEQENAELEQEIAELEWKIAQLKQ

[24] = target: T24, 4H118-bA; assay: two-hybrid library CCNG1
T24 chain: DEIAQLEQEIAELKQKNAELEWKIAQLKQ

[25] = target: T25, 4H1348-bA; assay: two-hybrid library CCNG1
T25 chain: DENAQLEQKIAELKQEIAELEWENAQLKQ

[26] = target: T26, 4H1373-bA; assay: two-hybrid library CCNG1
T26 chain: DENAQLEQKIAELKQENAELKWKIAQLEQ

[27] = target: T27, 4H1544-bA; assay: two-hybrid library CCNG1
T27 chain: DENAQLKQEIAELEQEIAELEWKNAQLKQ

[28] = target: T28, 4H170-bA; assay: two-hybrid library CCNG1
T28 chain: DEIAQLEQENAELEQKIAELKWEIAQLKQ

[29] = target: T29, 4H1710-bA; assay: two-hybrid library CCNG1
T29 chain: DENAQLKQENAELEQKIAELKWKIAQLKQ

[30] = target: T30, 4H1831-bA; assay: two-hybrid library CCNG1
T30 chain: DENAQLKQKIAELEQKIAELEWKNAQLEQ

[31] = target: T31, 4H1899-bA; assay: two-hybrid library CCNG1
T31 chain: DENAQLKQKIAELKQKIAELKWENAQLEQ

[32] = target: T32, 4H1985-bA; assay: two-hybrid library CCNG1
T32 chain: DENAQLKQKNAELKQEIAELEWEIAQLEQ

[33] = target: T33, 4H2586-bA; assay: two-hybrid library CCNG1
T33 chain: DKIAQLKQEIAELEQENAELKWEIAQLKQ

[34] = target: T34, 4H2627-bA; assay: two-hybrid library CCNG1
T34 chain: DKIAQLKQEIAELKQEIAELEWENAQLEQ

[35] = target: T35, 4H2673-bA; assay: two-hybrid library CCNG1
T35 chain: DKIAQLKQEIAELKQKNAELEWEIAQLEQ

[36] = target: T36, 4H2702-bA; assay: two-hybrid library CCNG1
T36 chain: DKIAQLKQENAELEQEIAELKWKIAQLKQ

[37] = target: T37, 4H3010-bA; assay: two-hybrid library CCNG1
T37 chain: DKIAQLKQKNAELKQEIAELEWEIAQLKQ

[38] = target: T38, 4H3112-bA; assay: two-hybrid library CCNG1
T38 chain: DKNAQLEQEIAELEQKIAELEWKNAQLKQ

[39] = target: T39, 4H3162-bA; assay: two-hybrid library CCNG1
T39 chain: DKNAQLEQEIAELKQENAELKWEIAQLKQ

[40] = target: T40, 4H3175-bA; assay: two-hybrid library CCNG1
T40 chain: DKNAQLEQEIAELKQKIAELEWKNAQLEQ

[41] = target: T41, 4H3277-bA; assay: two-hybrid library CCNG1
T41 chain: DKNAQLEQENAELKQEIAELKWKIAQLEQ

[42] = target: T42, 4H3298-bA; assay: two-hybrid library CCNG1
T42 chain: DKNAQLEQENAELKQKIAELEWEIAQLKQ

[43] = target: T43, 4H3427-bA; assay: two-hybrid library CCNG1
T43 chain: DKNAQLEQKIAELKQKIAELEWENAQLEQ

[44] = target: T44, 4H346-bA; assay: two-hybrid library CCNG1
T44 chain: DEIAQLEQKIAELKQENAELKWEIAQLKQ

[45] = target: T45, 4H3462-bA; assay: two-hybrid library CCNG1
T45 chain: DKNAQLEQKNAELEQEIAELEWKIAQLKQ

[46] = target: T46, 4H3497-bA; assay: two-hybrid library CCNG1
T46 chain: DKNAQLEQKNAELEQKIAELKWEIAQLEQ

[47] = target: T47, 4H3613-bA; assay: two-hybrid library CCNG1
T47 chain: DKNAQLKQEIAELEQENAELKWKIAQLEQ

[48] = target: T48, 4H3628-bA; assay: two-hybrid library CCNG1
T48 chain: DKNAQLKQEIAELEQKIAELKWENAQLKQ

[49] = target: T49, 4H3926-bA; assay: two-hybrid library CCNG1; conditions: mean of both orientations
T49 chain: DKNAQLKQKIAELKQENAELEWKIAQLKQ

[50] = target: T50, 4H4073-bA; assay: two-hybrid library CCNG1
T50 chain: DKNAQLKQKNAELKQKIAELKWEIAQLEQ

[51] = target: T51, 4H457-bA; assay: two-hybrid library CCNG1
T51 chain: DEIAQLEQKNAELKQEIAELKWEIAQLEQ

[52] = target: T52, 4H575-bA; assay: two-hybrid library CCNG1
T52 chain: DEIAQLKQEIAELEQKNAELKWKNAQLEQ

[53] = target: T53, 4H591-bA; assay: two-hybrid library CCNG1
T53 chain: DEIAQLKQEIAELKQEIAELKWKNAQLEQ

[54] = target: T54, 4H626-bA; assay: two-hybrid library CCNG1
T54 chain: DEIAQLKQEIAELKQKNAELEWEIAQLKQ

[55] = target: T55, 4H683-bA; assay: two-hybrid library CCNG1
T55 chain: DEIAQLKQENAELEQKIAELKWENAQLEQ

[56] = target: T56, 4H754-bA; assay: two-hybrid library CCNG1
T56 chain: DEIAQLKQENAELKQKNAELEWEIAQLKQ

[57] = target: T57, 4H780-bA; assay: two-hybrid library CCNG1
T57 chain: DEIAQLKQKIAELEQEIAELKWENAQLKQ

[58] = target: T58, 4H797-bA; assay: two-hybrid library CCNG1
T58 chain: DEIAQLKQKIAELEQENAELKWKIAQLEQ

[59] = target: T59, 4H855-bA; assay: two-hybrid library CCNG1
T59 chain: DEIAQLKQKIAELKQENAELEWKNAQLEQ

[60] = target: T60, 4H906-bA; assay: two-hybrid library CCNG1
T60 chain: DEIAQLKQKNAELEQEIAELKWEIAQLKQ

[61] = target: T61, 4H918-bA; assay: two-hybrid library CCNG1
T61 chain: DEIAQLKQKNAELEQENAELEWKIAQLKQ

[62] = target: T62, 4H953-bA; assay: two-hybrid library CCNG1
T62 chain: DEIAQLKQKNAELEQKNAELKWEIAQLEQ

[63] = target: T63, 4H968-bA; assay: two-hybrid library CCNG1
T63 chain: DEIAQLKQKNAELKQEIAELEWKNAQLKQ

[64] = target: T64, O6; assay: two-hybrid library CCNG1
T64 chain: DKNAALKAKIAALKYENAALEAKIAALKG

[65] = target: T65, P8SHb; assay: two-hybrid library CCNG1
T65 chain: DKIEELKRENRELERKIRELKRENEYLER

[66] = target: T66, Core_IIII-es_KKEE; assay: two-hybrid library CCmax; conditions: mean of both orientations
T66 chain: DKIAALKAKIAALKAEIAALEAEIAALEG

[67] = target: T67, Core_IIII-es_KEKK; assay: two-hybrid library CCmax; conditions: mean of both orientations
T67 chain: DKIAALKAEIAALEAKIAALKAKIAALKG

B1: P10 (peptide)
chain: KNAQLKEENAALEEKIQQLKEKIQALKYG
interaction score [1]: -2.46
interaction score [2]: -0.938
interaction score [3]: -2.49
interaction score [4]: -1.63
interaction score [5]: -2.74
interaction score [6]: -2.91
interaction score [7]: -2.94
interaction score [8]: -2.65
interaction score [9]: -2.77
interaction score [10]: -2.96
interaction score [11]: -2.88
interaction score [12]: -2.61
interaction score [13]: -2.28
interaction score [14]: -1.77
interaction score [15]: -2.78
interaction score [16]: -0.907
interaction score [17]: -2.22
interaction score [18]: -2.83
interaction score [19]: -2.75
interaction score [20]: 0.493

B2: 4H1081-bA (peptide)
chain: DENAQLEQEIAELEQKNAELKWEIAQLEQ
interaction score [21]: -1.09
interaction score [22]: -0.18
interaction score [23]: -1.28
interaction score [24]: -0.618
interaction score [25]: -0.834
interaction score [26]: -0.306
interaction score [27]: -0.272
interaction score [28]: -0.98
interaction score [29]: -1.02
interaction score [30]: -0.839
interaction score [31]: -0.763
interaction score [32]: -0.96
interaction score [33]: -1
interaction score [34]: -0.693
interaction score [35]: -0.717
interaction score [36]: 0.457
interaction score [37]: -0.178
interaction score [38]: -0.897
interaction score [39]: -0.581
interaction score [40]: -1.47
interaction score [41]: -0.575
interaction score [42]: -0.916
interaction score [43]: -0.645
interaction score [44]: -0.753
interaction score [45]: -0.859
interaction score [46]: -1.1
interaction score [47]: -0.495
interaction score [48]: -1.07
interaction score [49]: 2.57
interaction score [50]: -0.497
interaction score [51]: -0.799
interaction score [52]: -1.21
interaction score [53]: -0.855
interaction score [54]: -0.689
interaction score [55]: -0.217
interaction score [56]: -0.461
interaction score [57]: -0.865
interaction score [58]: -1.17
interaction score [59]: -0.154
interaction score [60]: -0.875
interaction score [61]: -0.671
interaction score [62]: -1.23
interaction score [63]: -1.8
interaction score [64]: 1.04
interaction score [65]: -1.25

B3: Core_IIII-es_EEKK (peptide)
chain: DEIAALEAEIAALEAKIAALKAKIAALKG
interaction score [66]: 1.78

B4: Core_IIII-es_EKEE (peptide)
chain: DEIAALEAKIAALKAEIAALEAEIAALEG
interaction score [67]: 1.78
